# Measured values taken from the DeepSol protein solubility set.
# Assay: soluble on expression in E. coli; label from the status in PepcDB or PDB records
row,Sequence,soluble on expression in E. coli
1,MSLEIGEKLRNLRIQKNLTQEELGERTDLSKGYISQLERDLSSPSMETFFSILEVLGVTPEQFFSQQPLEQKIVYNEEESTLYYDEEHGYELKWLIPASNEKEMEPVIITFDKNGEYKTFEPSLSETFIYVIDGSIRLTLGEATYIAKKGQTMYYQATEPHQISNNGRGKSRALIVATESYLEGGSHHHHHH,soluble
2,MSLEIVQEGIAKIIVPEIPKTVSSDMPVFYNPRMRVNRDLAVLGLEYLCKKLGRPVKVADPLSASGIRAIRFLLETSCVEKAYANDISSKAIEIMKENFKLNNIPEDRYEIHGMEANFFLRKEWGFGFDYVDLDPFGTPVPFIESVALSMKRGGILSLTATDTAPLSGTYPKTCMRRYMARPLRNEFKHEVGIRILIKKVIELAAQYDIAMIPIFAYSHLHYFKLFFVKERGVEKVDKLIEQFGYIQYCFNCMNREVVTDLYKFKEKCPHCGSKFHIGGPLWIGKLWDEEFTNFLYEEAQKREEIEKETKRILKLIKEESQLQTVGFYVLSKLAEKVKLPAQPPIRIAVKFFNGVRTHFVGDGFRTNLSFEEVMKKMEELKEKQKEFLEKEGHHHHHH,soluble
3,MSLEKNKEYIFDIISQGYEGEGIAKIDNKYPIFIEGALKGEKVKVRIVKVNKNFAYGKLMEVLEASEERVNPPCAIYKRCGGCKLQHASYKAQLDFKWDRVKDCVSKIGKLDPSIVKYPLGMEEPWRYRNKVQLPIGLINGEVKIGFFAPRSHDIIDMESCLIQDEIGDKVVKLTREWIEKFNIRPYNVDGEYDEKGIVRHIMIRRGFTTNEVMVVLVTNGEKLPHKEEFVDLMVKNIPGIKSVIQNINSKKTNVILGLESKTLWGEDTISDYIGDFRFNISPLSFFQVNPTQTEVLYGKALEYANLTGNEEVFDAYCGTGTITLFLSQKAKKVYGVEIIPQAIDNAWINAKENKVENVEFFVGESEVVIPDLINKGVKADVVVVDPPRKGCDKKLLDAITNINAKKIVYVSCDPSTLGRDLAILEENGYKTLEVQPVDMFPNTSHVENVAKLIKKEGHHHHHH,soluble
4,MSLENVDPFDIIRQFRSVIAKTSLQASSNIEGLDTVWNSDLVLEANFWHLVEILLSFRTSQEFLDKESSISSKPYNSSIIFEKELLQKDKNLYQIWLIIVWIEGNFPFVEKPSNIPSSKWTNTLVTSGLMSSDLDYPLRDCSVVINDKDKADDHVFYKYVYELLLCGNYDQIFEECKLSDNITLNMIMCGMQEYVDPSIDVQLKDEFEVQQGVKKHSLWRRAVYSLSQNDKLDKYERAIYSYLAGDIPNDEVLQTLNWDSELLVYLNQILKIEVENYLLQNGKVNNEGHHHHHH,soluble
5,MSLEQFNVWFTVSEVQGLVKSGGLADVAKALPQALKALHQQVAIALPAYRSVPGKEDAELVLETELTHWPHTQYRVLKRDLDGVPIYLIDCPAYFDRPALYAENNQAYADNGERFGFFSAACLDVLPKLGIQPDIIHANDWHTGLVPFLLKTRYRYDSFFEQVKSVLTVHNAIFKGIFSYHQLEVIPELNLSGMEFLQYGHDHVSMLRAGIAFADKVNAVSPNYAAELLTPLGAHGLVDDFVRRARDLHGIVNGCDYSEWNPRTDHYLPATYSDEPESMRKGKALCKTALQEELHLPVTDVPLFGMVCRLTHQKGFHYLLPILEQFLRNNVQVVIVGTGEPEVAARLNKIAHYHRAKFAFVETYSERLAHWVEAGSDFFLMPSEFEACGLNQIYSMAYGTLPIVREVGGLKDTVNDYDKFPERATGFGYQEPTPEALLITMQRALLFYLQQPEEMLKVQQRAMQQNFSWEESAQEYMKMYRLARFEGHHHHHH,soluble
6,MSLEQKWKWWEEERYPEGIKWKFLEHKGPVFAPPYEPLPENVKFYYDGKVMKLSPKAEEVATFFAKMLDHEYTTKEIFRKNFFKDWRKEMTNEEKNIITNLSKCDFTQMSQYFKAQTEARKQMSKEEKLKIKEENEKLLKEYGEGHHHHHH,soluble
7,MSLEREVCVNQLLKFLDSIRGRLSFRMVERLFSRGLDENPIFEAISKSGALAKNVIIILGGRGCGKTLVMRYIKHYFEPEGWDYKYFSGDQFKEADAQELMKIISETRDLLENSEDYKVIVGIDDVVEASEAIRDTIKNQLVPLVVDYAGRIKLVISGQSERVVGTTTVLHILEDTLGRSPKAEMLFGEYPGEGHHHHHH,soluble
8,MSLESIKKRAYEIENELGKEIEEVCNFIFNNPELGEEEYISSKYLVEKMKEYGFDTVYPYCNMETAFRAELGDNDGPTIAFLAEYDALPGYGENKEPAHACGHNWIAASTLGACIVLSKLKENFKGKIVLIGTPAEETTGGKCDLVKAGAFDDVDVSYQMHIEAFNNINCKALAIDSLEFSFEGVSAHAASHPHMGVNALDAVQLTFAGINALRQHVKSDVRIHGIVSNGGEAPNIVPEKAACKFFVRAAERSYLDEVTKKVINCAKGAELMTGAKLSYRYFENSFDNIINNKVLQKITKNNLIEAGITDILEGKDGPVGSTDIGNVSQVCPTMYTEIALDISPMVYVHEKEFLNYANSEEAYDKLHKAVKAMVGCALEIYLEDGLLDEIKKNHLNEGHHHHHH,soluble
9,MSLESRPLHVVLGNEACDLDSTVSALALAFYLAKTTEAEEVFVPVLNIKRSELPLRGDIVFFLQKVHIPESILIFRDEIDLHALYQAGQLTLILVDHHILSKSDTALEEAVAEVLDHRPIEPKHCPPCHVSVELVGSCATLVTERILQGAPEILDRQTAALLHGTIILDCVNMDLKIGKATPKDSKYVEKLEALFPDLPKRNDIFDSLQKAKFDVSGLTTEQMLRKDQKTIYRQGVKVAISAIYMDLEAFLQRSNLLADLHAFCQAHSYDVLVAMTIFFNTHNEPVRQLAIFCPHVALQTTICEVLERSHSPPLKLTPASSTHPNLHAYLQGNTQVSRKKLLPLLQEALSAYFDSMKIPSGQPETADVSREQVDKELDRASNSLISGLSQDEGHHHHHH,not soluble
10,MSLETILLNINISADKTSPKTLRKQLNKVLTSLDVNIQTSRKVELVTSEIVTNIVTHNNDNHTNITLKFGKCKNGYWLDIYDNGAEFDPLSGDIPELNDEFLLFESSRGLYLIRSQCDFIEYEYLNKIKNNRIHCVWYDENINAGPTILIIDDSEIELAIVSNLLSDQFSVLQASNGLDAISILDSHSIDIIISDLHMPTINGVDLYVYLQKHLDKIIPFIFLTSDTNEMTGLREDAYRIGADDVLTKPISQQMLVNAIERALKRNNEGHHHHHH,soluble
11,MSLEVQDDINSVDDIDSKLYHSVEWFYENKMYEDAIVATIAIIRRFLLCGKLAPLKAFSKGKNFKLLLVEYDTQLQTKSLIFQNEPEIVTEEDKEELLAYASLIEGLILIDEWKKFVSTQINSQGKWLSTGVDSSIDKTSKTLLNLIFKWFKNTSSEKDSDLAIYSEFRSIYVPYLIIELLKIFQNAREKDWKYMRSAFSLINDVANEEQNDFLSCFLKCGRLDEFLVKAGEVSIVAVEKGISGIFYEGHHHHHH,not soluble
12,MSLEYKLTPSYLLKENMVLACGNILFADDGFSVHVIEKLQELLTEEEKENIALVDAGAGAPQQVLTLIDSEAKTKKIIVVDIIDYGLEPGEIKILTMDDLPKPEHTKVDSHDWPLSTTMYRVFRDAPHEIDFKVVGCQKKYVSEPDVVIELSEEVQNAVDVAVDIVLSELRGKPINEGHHHHHH,soluble
13,MSLFARQLQSLTASGIRTQQVRLASTEVSFHTKPCKLHKLDNGPNTSVTLNREDALKYYRDMQVIRRMESAAGNLYKEKKIRGFCHLYSGQEACAVGMKAAMTEGDAVITAYRCHGWTWLLGATVTEVLAELTGRVAGNVHGKGGSMHMYTKNFYGGNGIVGAQQPLGAGVALAMKYREQKNVCVTLYGDGAANQGQLFEATNMAKLWDLPVLFVCENNGFGMGTTAERSSASTEYYTRGDYVPGIWVDGMDILAVREATKWAKEYCDSGKGPLMMEMATYRYHGHSMSDPGTSYRTREEIQEVRKTRDPITGFKDRIITSSLATEEELKAIDKEVRKEVDEALKIATSDGVLPPEALYADIYHNTPAQEIRGATIDETIVQPFKTSADVLKSIGRA,not soluble
14,MSLGAMPTVRDLRLIPFRIPLKAPLRWGKSSELAALEHALLEVELSDGSIGRAEVAIRPTIYGETLGSVRAGLEYLRPRLLGLEADDQEGIRAVLEAFPFNFGLKGALDTALWEAWARSEGEELYQVLKPAKHRVRVAYILGLGEEDEVLEDARMAFGAGVRVFKVKVGRDLEADTRRILRLKEAFPEAELYADANESLPPKEAERYLLAWKELGLRYVEEPLPVEEVEARRALREKGILSLIADDAAMTPKDLKRELALNTFDVLNLKPARTGVTWTLEMLALARERGKKAMVGSQAQSAFGAYQSALLAFQQGVTEPCELAFHLKAEGGFFPFPPFREGWLYWEDLVEARFDEEAFARYALKEAEGHHHHHH,soluble
15,MSLGCTNFIQVGTVLGAPNVFLIGDAREVGHQGYENILREAKKVLTFDLDEKLRGFKNIVVYPGTFDFEGIVKNLDSDAKITVDIAYDVNDADELSRVYGASHALAISTSSELFSSLALENLGPLLKACKTRSAKHLLLKENRGGSRLFDLESGESWEIPATLARTVNSVGVGDVYTAVFAALIDHGALTAALRGMQAATRYAQTTFPDDFKRDVQRDFKLTPDEVLSLGGVLLPWHDRPHFEIYLAAPDFSYMEKAEVDAAVEALLYHNFTVRRPVQDNGEACPGTPAEDLRSYYDRDVELLRRCSLVFAVPLNRDPGTLVEIGLAIAAGTPVVTYDPRQENNNTMVICGSDAYSDDLDQCLNSTFELLAKLREQAKEGHHHHHH,not soluble
16,MSLGDQKPATIYAPTVRVTPNPAWPQVSWQLLVAKPSAARIIDSPRINVRPTPGELQVYHGAGWAQPATDMLEDSVVRAFEDSGKIAAVARIGAGIRSDYKLAIDVRRFESDYAGQSLPAATIELNAKLLHSSDQRVVASRTFTVARPSSSTDTAAVAAAFEQALTQVTTELVGWTLITGQQDSQTLPRALEGHHHHHH,soluble
17,MSLGESRKHIDYKKGTINLNGVEYPLNDTNFPTINPENPLELLEEEAELLDKLQASFLGSEKLQKHMQLLFAKGGMYLKYNSNLLFHACIPMEPNGEFSKLYVEDGYYKGKALMDKIDNIVRQAYYDRKNVEVNKKHRDFIWYLWAGRLSPLFGKDVMKTFERYFIDDKSTHKEIKNPYHKLINDEKICDKIFEEFGLNPRTSHIINGHIPVKVKEGESPIKANGKLLIIDGGFSRAYQSTTGIAGYTLTYNSYGMKLASHLKFISKEAAIKDGTDMISSHIIVETKSKRMKVKDTDIGKNIQNQINDLKKLLKAYRIGLIKSNEGHHHHHH,not soluble
18,MSLGFASQQEAVNDFWGWPSDESDKEAVEASIRKYANAIADTINKYGYDGFDIDYEPNYGNKGNIVDDDDRMFIFVDELGKHFGPKSGTGKLLIIDGEPQSIKNRPDVGPYFDYFIIQAYKPGNDNNLDKRLIDGGVAGPGLVQTYGSVMSEEQITKMTIMTENFEAVDAAMDGGYPYTDRYGNSMKSLEGMARWQPKNGFRKGGVGSYHMEAEYPTNPEYKNLRKAIQIMNPSTKPLIKYEGHHHHHH,soluble
